# Results reported in publication PMC6239178, “The binding of Class II sRNA MgrR to two different sites on matchmaker protein Hfq enables efficient competition for Hfq and annealing to regulated mRNAs”.
# B1: ygdQ145_AU3 (structured_RNA)
# RNA: GCUUCAUUUUUUUGGCAGGGCUUUUUAGAUGUUAUUUGCAUGGAUAACCGAUCCUAACGCCUGGCUUGCGCUCGGUACGCUGACGCUGCUGGAGAUCGUUCUUGGGAUCGACAAUGUGCUGGUCCUCUCUCUGGUGGUGGCAAAG
# B2: eptB133_AU1_v1 (structured_RNA)
# RNA: GCGCGUGUAGACCGCACUUAUCUGACUACCUCCGCACUUUUUCCCUGCCGGGCCUGAAAAGCCACUAAGCAGGGUGUUAUCACCUGUUUGUCCAGGGUUUGUUUGCAUGAGAUACAUCAAAUCGAUUACACAG
# B3: eptB133_AU1_v2 (structured_RNA)
# RNA: GCGCGUGUAGUUUUUUCUUUUCUGACUACCUCCGCACUUUUUCCCUGCCGGGCCUGAAAAGCCACUAAGCAGGGUGUUAUCACCUGUUUGUCCAGGGUUUGUUUGCAUGAGAUACAUCAAAUCGAUUACACAG
# Legend:
# Hfq wt [1] = target: T1, Hfq wt (Escherichia coli, UniProt P0A6X3 1-102); experiment: EMSA; ternary complex with MgrR, unaffected; HBB buffer (composition not in material); competition and dissociation at RT; Kd gelshift 0.1 nM 32P-MgrR, 2 h RT, 5% native gel in TBM (89 mM Tris, 89 mM borat); details: protein: recombinant; pET15b); chain copies: 6
# T1 sequence (P0A6X3 whole entry): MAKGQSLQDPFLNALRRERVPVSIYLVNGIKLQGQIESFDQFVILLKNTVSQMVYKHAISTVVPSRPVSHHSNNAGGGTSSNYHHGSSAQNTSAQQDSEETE
# Hfq wt [2] = target: T1, Hfq wt; experiment: filter binding; 32P-A27 complex displaced by MgrR; HBB buffer (composition not in material); competition and dissociation at RT; Kd gelshift 0.1 nM 32P-MgrR, 2 h RT, 5% native gel in TBM (89 mM Tris, 89 mM borat); details: protein: recombinant; pET15b); chain copies: 6; label: 32P or unlabeled; single-stranded
# Hfq wt [3] = target: T1, Hfq wt; experiment: filter binding; 32P-U18 complex displaced by MgrR; HBB buffer (composition not in material); competition and dissociation at RT; Kd gelshift 0.1 nM 32P-MgrR, 2 h RT, 5% native gel in TBM (89 mM Tris, 89 mM borat); details: protein: recombinant; pET15b); chain copies: 6; label: 32P or unlabeled; single-stranded
# Hfq wt [4] = target: T1, Hfq wt; experiment: EMSA; ternary complex with MgrR, annealing not markedly affected; HBB buffer (composition not in material); competition and dissociation at RT; Kd gelshift 0.1 nM 32P-MgrR, 2 h RT, 5% native gel in TBM (89 mM Tris, 89 mM borat); details: protein: recombinant; pET15b); chain copies: 6
binder,measurement,setting,value
B1,binding result,Hfq wt [1],binds
AAAAAAAAAAAAAAAAAAAAAAAAAAA (ssRNA) [A27],binding result,Hfq wt [2],binds
UUUUUUUUUUUUUUUUUU (ssRNA) [U18],binding result,Hfq wt [3],binds
B2,binding result,Hfq wt [4],binds
B3,binding result,Hfq wt [4],binds
